Patent publication US9725713

Tests used:
[1] = system: MDA-MB-231 cell surface (target molecule unidentified, whole cells); experiment: flow; conditions: apparent Kd on whole cells
[2] = system: MDA-MB-231 cell surface (target molecule unidentified, whole cells) (Homo sapiens?); experiment: flow

Sequence: TCCCGAGTGACGCAGCCCCCGGNGGGATTGATCGGTGGACACGGTGGCTGAC [Z23-G30]
- Kd ([1]; n at 23 is Z): 442 nM

Sequence: TCCCGAGTGACGCAGCCCCCGGZGGGATTPATCGGTGGACACGGTGGCTGAC [ZAP-2012 (Z23-P30)]
- Kd ([1]; AEGIS DNA, Z at 23 (6-amino-5-nitro-3-(2'-deoxyribosyl)-2(1H)-pyridone), P at 30 (2-amino-8-(2'-deoxyribosyl)-imidazo[1,2-a]-1,3,5-triazin-4(8H)one), SEQ 7/16, DPBS, 5 mM MgCl2, glucose, tRNA, BSA, 10% FBS, library background subtracted): 30 nM

Sequence: TCCCGAGTGACGCAGCCCCCGGTGGGATTAATCGGTGGACACGGTGGCTGAC [T23-A30]
- Kd ([2]; no binding at 250 nM): > 1000 nM

Sequence: TCCCGAGTGACGCAGCCCCCGGCGGGATTAATCGGTGGACACGGTGGCTGAC [C23-A30]
- Kd ([2]; no binding at 250 nM): > 1000 nM

Sequence: TCCCGAGTGACGCAGCCCCCGGCGGGATTNATCGGTGGACACGGTGGCTGAC [C23-P30]
- Kd ([1]; n at 30 is P): 160 nM

Sequence: TCCCGAGTGACGCAGCCCCCGGTGGGATTNATCGGTGGACACGGTGGCTGAC [T23-P30]
- Kd ([2]; n at 30 is P, no binding at 250 nM): > 1000 nM

Sequence: TCCCGAGTGACGCAGCCCCCGGNGGGATTAATCGGTGGACACGGTGGCTGAC [Z23-A30]
- Kd ([2]; n at 23 is Z, reduced binding at 250 nM, almost no binding in titration): > 1000 nM

Sequence: TCCCGAGTGACGCAGCCCCCGGCGGGATTGATCGGTGGACACGGTGGCTGAC [C23-G30]
- Kd ([2]; no binding at 250 nM): > 1000 nM

Sequence: TCCCGAGTGACGCAGCCCCCGGTGGGATTGATCGGTGGACACGGTGGCTGAC [T23-G30]
- Kd ([2]; no binding at 250 nM): > 1000 nM
